PMC12316933 (2025)

T1: PT09 N2 (recombinant N2 neuraminidase head of H3N2 A/Perth/16/2009) (Influenza A virus H3N2 A/Perth/16/2009)
T1 chain: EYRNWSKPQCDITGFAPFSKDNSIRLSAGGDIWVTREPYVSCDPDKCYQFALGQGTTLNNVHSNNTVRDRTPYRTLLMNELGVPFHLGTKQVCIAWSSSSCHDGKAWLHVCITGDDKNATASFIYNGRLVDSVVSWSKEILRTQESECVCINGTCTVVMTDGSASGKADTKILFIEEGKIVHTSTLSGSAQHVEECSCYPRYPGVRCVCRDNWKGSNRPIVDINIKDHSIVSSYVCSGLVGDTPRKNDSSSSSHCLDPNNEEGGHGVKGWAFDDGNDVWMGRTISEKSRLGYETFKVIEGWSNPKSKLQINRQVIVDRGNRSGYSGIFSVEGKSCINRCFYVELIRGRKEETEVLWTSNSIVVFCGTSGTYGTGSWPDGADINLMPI

B1: DA03E17 IgG (human monoclonal antibody) (antibody, V domains shown)
VH: EVQLVESGPGLVKPSQTLSLTCTVSGGSFSSGGYLWSWVRQHPGKGLEWIGYILYSGSPYYNPSLESRATISLDTSKNQFSLRLISVTAADAAMYYCARVDGSGNTDRYYFYGMDVWGQGTMVTVSS
VL: DIQMTQSPSSVSASVGDRVTITCRASRGIGDWLAWYQQKPGKAPKLLIYAASSLQRGVPSRFSGSGSGTDFTLTISSLQPDDFATYYCQQADGWEVWTFGQGTKVDVK
B2: DA03E17 Fab (Fab, V domains shown)
VH: B1 VH
VL: B1 VL

How the values were obtained:
Assay in all cases: BLI
[1] = molecular target: T1, PT09 N2 (recombinant N2 neuraminidase …)
[2] = molecular target: CO17 B NA (recombinant neuraminidase head of B/Colorado/06/2017, B/Victoria-lineage) (Influenza B virus B/Colorado/06/2017)
[3] = molecular target: IN11 N2 (recombinant N2 neuraminidase head of H3N2 A/Indiana/08/2011) (Influenza A virus H3N2 A/Indiana/08/2011)

Row | Binder | Kd [1] [nM] | Kd [2] [nM] | Kd [3] [nM]
1 | B1 | < 0.001 | 0.969 | < 0.001
2 | B2 | 31 | 913 | 4.53
